{
  "source": "patent US20050182242A1",
  "about": "“Global analysis of protein activities using proteome chips” (priority 2001, published 2005)",
  "key": {"PI(3,4)P2 liposomes": {"system": "PI(3,4)P2 liposomes", "assay": "Yeast proteome chip probed with PI(3,4)P2 liposomes", "details": "liposome binding signal on yeast proteome chip, Cy3-streptavidin detection"}, "[1]": {"system": "phospholipids (phosphatidylinositols vs phosphatidylcholine)", "assay": "Proteome chip lipid-binding screen, overall analysis of six liposomes (PI/PC specificity)", "details": "for preferential binding of particular phosphatidylinositol lipids: compared with phosphatidylcholine; for identified as lipid-binding interactor: phospholipid liposome probes", "source_text": "FIGS. 4A-4D. Analysis of the phosphatidylinositol-binding proteins. To determine the phosphatidylinositol (“PI”)-binding specificity of 150 positive proteins, their binding signals were normalized against the corresponding binding signals of phosphatidylcholine (“PC”). Based on the ratios (“PI/PC”), the proteins were grouped into four categories: (A) 30 strong and specific, (B) 43 strong and nonspecific, (C) 19 weak and specific, and (D) 58 weak and nonspecific phosphatidylinositol-binding proteins. The intensity represents the PI/PC signal ratio as shown by the scale in the figure. The column, labeled “10^n” to the right of the PI/PC binding ratios indicates the maximum binding signal intensity (open boxes) and its confidence interval (solid horizontal lines); the numbers indicate the log of the values. Boxes in the three columns to the right of the confidence interval column indicate membrane-associated proteins (“Membrane”), kinases (“Kinase”), and uncharacterized ORFs (“Unknown”), respectively.\nTo identify PI-binding proteins in yeast, liposomes were used as probes because the liposome provides the most relevant physiological condition to assay the interactors. Six types of liposomes were used. Each contains phosphatidylcholine (“PC”) with 1% (w/w) N-(biotinoyl)-1,2-dihexadecanoyl-sn-glycero-3-phosphoethanolamine, triethylammonium salt (biotin DHPE). The biotinylated lipid serves as a label that can be detected by Cy3-streptavidin (21). In addition to PC, the five other liposomes contain either 5% (w/w) PI(3)P, PI(4)P, PI(3,4)P2, PI(4,5)P2, or PI(3,4,5)P3 (FIG. 3A).\nThe protein-liposome interaction was assayed as follows. Appropriate amounts of each lipid in chloroform were mixed and dried under nitrogen. The lipid mixture was resuspended in TBS buffer by vortexing. The liposomes were created by sonication. Blocked proteome chips were washed three to five times in PBS buffer, and the extra liquid on the glass surface was removed by tapping the slides vertically on a KIMWIPE™. 200 μl of liposome solution was added to the proteome chip and immediately covered by a hydrophobic plastic cover slip (GRACE BIO-LAB™, USA). After trapped air bubbles were removed, the chip was incubated in a humidity chamber at RT for one hour. To remove the cover slip, the chip was immersed into large volume of PBS buffer (50 ml), so that the slip would float away. The chip was then moved to a second PBS bath (>50 ml) and washed 3×5 min with shaking at RT. After removing extra liquid on the surface of the chip, about 100 μl of Cy3 or Cy5 conjugated streptavidin (PIERCE™, USA; 1:2000 to 1:4000 dilution) was added to the surface and covered by a hydrophobic plastic cover slip (GRACE BIO-LABS™, USA). The chip was incubated for greater than 30 min in the dark at RT. The chip was then washed as described above. To completely remove the liquid on the chip, the chip was spun to dryness at 1500-2000 rpm for 5-10 min at RT.\nAn algorithm was devised to assist in the identification of positive signals (42). Fifty-two (35%) of the interactors (i.e., lipid-binding proteins) correspond to uncharacterized proteins thus ascribing the first biochemical activities to those proteins.\nThe interactors (i.e., phospholipid-binding proteins) were grouped in several ways (42). First, the interactors were sorted according to whether they bound lipids strongly or weakly, based on the phospholipid-binding signal relative to the amount of GST (FIG. 4). Slightly more (72%) of the strong lipid binding proteins (FIGS. 4A and 4B) were characterized relative to the weakly binding proteins (54%) (FIGS. 4C and 4D). Many of the strong lipid-binding proteins are membrane-associated, or are predicted to be associated with membranes, whereas fewer of the weaker binding proteins appear to be associated with membranes (FIG. 4, “Membrane” column). […] Moreover, thirteen of the seventeen protein kinases bind very strongly to the phospholipids. […]"}, "PI(3,4,5)P3 liposomes": {"system": "PI(3,4,5)P3 liposomes", "assay": "Yeast proteome chip probed with PI(3,4,5)P3 liposomes", "details": "liposome binding signal on yeast proteome chip, Cy3-streptavidin detection"}, "PI(4)P liposomes": {"system": "PI(4)P liposomes", "assay": "Yeast proteome chip probed with PI(4)P liposomes", "details": "liposome binding signal on yeast proteome chip, Cy3-streptavidin detection"}, "PI(4,5)P2 liposomes": {"system": "PI(4,5)P2 liposomes", "assay": "Yeast proteome chip probed with PI(4,5)P2 liposomes", "details": "liposome binding signal on yeast proteome chip, Cy3-streptavidin detection"}, "[2]": {"system": "phosphatidylcholine (PC) liposomes", "assay": "Yeast proteome chip probed with PC liposomes", "details": "liposome binding signal on yeast proteome chip, Cy3-streptavidin detection", "in_short": "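Binding detected by fluorescent streptavidin (Cy3 or Cy5, >30 min in the dark at RT) recognizing biotin-DHPE (1% w/w) in PC liposomes, which carried 5% (w/w) of the named phosphoinositide unless PC-only. Liposomes, made by sonication in TBS, were applied to blocked chips for 1 h at RT, then washed in PBS.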"}, "PI(3)P liposomes": {"system": "PI(3)P liposomes", "assay": "Yeast proteome chip probed with PI(3)P liposomes", "details": "liposome binding signal on yeast proteome chip, Cy3-streptavidin detection"}},
  "data": [
    {"molecule": "ATP1: yeast alpha subunit of F1-ATP synthase, GST-HisX6 fusion (protein, UniProt P07251 36-545, looked up, GST-His6 tag, yeast alpha subunit of F1-ATP synthase, GST-HisX6 fusion) ATP synthase subunit alpha, …: ASTKAQPTEVSSILEERIKGVSDEANLNETGRVLAVGDGIARVFGLNNIQAEELVEFSSGVKGMALNLEPGQVGIVLFGSDRLVKEGELVKRTGNIVDVPVGPGLLGRVVDALGNPIDGKGPIDAAGRSRAQVKAPGILPRRSVHEPVQTGLKAVDALVPIGRGQRELIIGDRQTGKTAVALDTILNQKRWNNGSDESKKLYCVYVAVGQKRSTVAQLVQTLEQHDAMKYSIIVAATASEAAPLQYLAPFTAASIGEWFRDNGKHALIVYDDLSKQAVAYRQLSLLLRRPPGREAYPGDVFYLHSRLLERAAKLSEKEGSGSLTALPVIETQGGDVSAYIPTNVISITDGQIFLEAELFYKGIRPAINVGLSVSRVGSAAQVKALKQVAGSLKLFLAQYREVAAFAQFGSDLDASTKQTLVRGERLTQLLKQNQYSPLATEEQVPLIYAGVNGHLDGIELSRIGEFESSFLSYLKSNHNELLTEIREKGELSKELLASLKSATESFVATF", "values": [
      {"measurement": "PI(3, 4)P2", "setting": "PI(3,4)P2 liposomes", "result": 11.93},
      {"measurement": "preferential binding of particular phosphatidylinositol lipids", "setting": "[1]", "result": "preferentially binds PI(3,4)P2"},
      {"measurement": "PI(3, 4, 5)P3", "setting": "PI(3,4,5)P3 liposomes", "result": 26.44},
      {"measurement": "PI(4)P", "setting": "PI(4)P liposomes", "result": 28.09},
      {"measurement": "PI(4, 5)P2", "setting": "PI(4,5)P2 liposomes", "result": 46.38},
      {"measurement": "PC", "setting": "[2]", "result": 0.29}
    ]},
    {"molecule": "SPS2: yeast sporulation protein of prospore membrane, GST-HisX6 fusion (protein, UniProt P08459 57-475, looked up, GST-His6 tag, yeast sporulation protein of prospore membrane, GST-HisX6 fusion) Sporulation-specific protein 2: AVEPNGGPNILDHNIMLVNTNATIPKKEQTDFEVISPTKQTQVDEDCKKGLYHIENAGNLIELQAKCWKVVGNIEISSNYSGSLIDLGLIREIEGDLIIKNNKHIFRIQGYNLESLGKLELDSLTSFVSLDFPALKEVETVDWRVLPILSSVVINGNIKKIKNIIISDTALTSIDYFNNVKKVDIFNINNNRFLENLFASLESVTKQLTVHSNAKELELDLSNLHTVENMTIKDVSEIKLAKLSSVNSSLEFIENQFSSLELPLLAKVQGTLGLIDNKNLKKLNFSNATDIQGGLMIANNTELAKIDFFPKLRQIGGAIYFEGSFDKIDLPELKLVKGSAYIKSSSEELNCEEFTSPKAGRSIIRGGKIECTSGMKSKMLNVDEEGNVLGKQETDNDNGKKEKGKNGAKSQGSSKKMEN", "values": [
      {"measurement": "PI(3, 4)P2", "setting": "PI(3,4)P2 liposomes", "result": 54.63},
      {"measurement": "preferential binding of particular phosphatidylinositol lipids", "setting": "[1]", "result": "preferentially interacts with PI(3)P"},
      {"measurement": "PI(3, 4, 5)P3", "setting": "PI(3,4,5)P3 liposomes", "result": 25.31},
      {"measurement": "PI(4)P", "setting": "PI(4)P liposomes", "result": 47.47},
      {"measurement": "PI(4, 5)P2", "setting": "PI(4,5)P2 liposomes", "result": 64.02},
      {"measurement": "PC", "setting": "[2]", "result": 44.61},
      {"measurement": "PI(3)P", "setting": "PI(3)P liposomes", "result": 18.50}
    ]},
    {"molecule": "STP22: yeast protein required for vacuolar targeting of plasma membrane proteins, GST-HisX6 fusion (protein, UniProt P25604 1-385, looked up, GST-His6 fusion tag) Suppressor protein STP22 of …: MSANGKISVPEAVVNWLFKVIQPIYNDGRTTFHDSLALLDNFHSLRPRTRVFTHSDGTPQLLLSIYGTISTGEDGSSPHSIPVIMWVPSMYPVKPPFISINLENFDMNTISSSLPIQEYIDSNGWIALPILHCWDPAAMNLIMVVQELMSLLHEPPQDQAPSLPPKPNTQLQQEQNTPPLPPKPKSPHLKPPLPPPPPPQPASNALDLMDMDNTDISPTNHHEMLQNLQTVVNELYREDVDYVADKILTRQTVMQESIARFHEIIAIDKNHLRAVEQAIEQTMHSLNAQIDVLTANRAKVQQFSSTSHVDDEDVNSIAVAKTDGLNQLYNLVAQDYALTDTIECLSRMLHRGTIPLDTFVKQGRELARQQFLVRWHIQRITSPLS", "values": [
      {"measurement": "PI(3, 4)P2", "setting": "PI(3,4)P2 liposomes", "result": 8.79},
      {"measurement": "preferential binding of particular phosphatidylinositol lipids", "setting": "[1]", "result": "preferentially binds PI(4)P"},
      {"measurement": "PI(3, 4, 5)P3", "setting": "PI(3,4,5)P3 liposomes", "result": 22.05},
      {"measurement": "PI(4)P", "setting": "PI(4)P liposomes", "result": 10.89},
      {"measurement": "PI(4, 5)P2", "setting": "PI(4,5)P2 liposomes", "result": "−8.27"},
      {"measurement": "PC", "setting": "[2]", "result": 2.93},
      {"measurement": "PI(3)P", "setting": "PI(3)P liposomes", "result": 51.50}
    ]},
    {"molecule": "GPM3: yeast phosphoglycerate mutase, GST-HisX6 fusion (protein, UniProt Q12326 1-303, looked up, GST-His6 tag, yeast phosphoglycerate mutase, GST-HisX6 fusion) Phosphoglycerate mutase 3: MTVTDTFKLFILRHGQSELNSENIFCGWIDAQLTEKGKSQARHSAKLIKQFCDSNNISLPQIGYTSRLIRTQQTMDVILEELGLKHTNYVITTNTNIKEELQDTRFEGSMPVLQTWRLNERHYGAWQGQRKPDILKEYGKEKYMYIRRDYNGKPPKVNLNLEMVQEENDQGSSTGYDFKEPNRHLKYGPEEKANERLPESESLCEVVVRLKPFLNNVVLSTANKISQESCVIVGHGSSVRSLLKVLEGISDEDIKDVDIPNGIPLVIELDRDNYSFVRKFYLDPESAKVNAQMVRDEGFEKNP", "values": [
      {"measurement": "PI(3, 4)P2", "setting": "PI(3,4)P2 liposomes", "result": 85.40},
      {"measurement": "identified as lipid-binding interactor", "setting": "[1]", "result": "identified"},
      {"measurement": "PI(3, 4, 5)P3", "setting": "PI(3,4,5)P3 liposomes", "result": 66.04},
      {"measurement": "PI(4)P", "setting": "PI(4)P liposomes", "result": 85.35},
      {"measurement": "PI(4, 5)P2", "setting": "PI(4,5)P2 liposomes", "result": 112.57},
      {"measurement": "PC", "setting": "[2]", "result": 137.64},
      {"measurement": "PI(3)P", "setting": "PI(3)P liposomes", "result": 42.50}
    ]},
    {"molecule": "PYK1: yeast pyruvate kinase, GST-HisX6 fusion (protein, UniProt P00549 2-500, looked up, GST-HisX6 tag, yeast pyruvate kinase, GST-HisX6 fusion) Pyruvate kinase 1: SRLERLTSLNVVAGSDLRRTSIIGTIGPKTNNPETLVALRKAGLNIVRMNFSHGSYEYHKSVIDNARKSEELYPGRPLAIALDTKGPEIRTGTTTNDVDYPIPPNHEMIFTTDDKYAKACDDKIMYVDYKNITKVISAGRIIYVDDGVLSFQVLEVVDDKTLKVKALNAGKICSHKGVNLPGTDVDLPALSEKDKEDLRFGVKNGVHMVFASFIRTANDVLTIREVLGEQGKDVKIIVKIENQQGVNNFDEILKVTDGVMVARGDLGIEIPAPEVLAVQKKLIAKSNLAGKPVICATQMLESMTYNPRPTRAEVSDVGNAILDGADCVMLSGETAKGNYPINAVTTMAETAVIAEQAIAYLPNYDDMRNCTPKPTSTTETVAASAVAAVFEQKAKAIIVLSTSGTTPRLVSKYRPNCPIILVTRCPRAARFSHLYRGVFPFVFEKEPVSDWTDDVEARINFGIEKAKEFGILKKGDTYVSIQGFKAGAGHSNTLQVSTV", "values": [
      {"measurement": "PI(3, 4)P2", "setting": "PI(3,4)P2 liposomes", "result": "−5.02"},
      {"measurement": "identified as lipid-binding interactor", "setting": "[1]", "result": "identified"},
      {"measurement": "PI(3, 4, 5)P3", "setting": "PI(3,4,5)P3 liposomes", "result": "−1.12"},
      {"measurement": "PI(4)P", "setting": "PI(4)P liposomes", "result": 10.45},
      {"measurement": "PI(4, 5)P2", "setting": "PI(4,5)P2 liposomes", "result": "−13.06"},
      {"measurement": "PC", "setting": "[2]", "result": 6.46},
      {"measurement": "PI(3)P", "setting": "PI(3)P liposomes", "result": "−9.00"}
    ]}
  ]
}
